Source: patent publication US20180280412A1

Target: Ub-AMC substrate

Substance: purified 26S proteasome (enzyme)
- DUBs activity on Ub-AMC substrate: 3 fold
